Measured values: PMC10397247

Columns and labels:
4H1222-bA = molecular target: T1, 4H1222-bA; assay: two-hybrid library CCNG1;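 further: natural log of median RNA to DNA barcode read ratio; higher means stronger binding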
T1 chain: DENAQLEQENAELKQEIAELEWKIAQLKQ

4H1338-bA = molecular target: T2, 4H1338-bA; assay: two-hybrid library CCNG1;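 further: natural log of median RNA to DNA barcode read ratio; higher means stronger binding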
T2 chain: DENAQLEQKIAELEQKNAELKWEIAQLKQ

4H1348-bA = molecular target: T3, 4H1348-bA; assay: two-hybrid library CCNG1;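 further: natural log of median RNA to DNA barcode read ratio; higher means stronger binding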
T3 chain: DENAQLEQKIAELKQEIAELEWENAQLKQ

4H1359-bA = molecular target: T4, 4H1359-bA; assay: two-hybrid library CCNG1;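 further: natural log of median RNA to DNA barcode read ratio; higher means stronger binding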
T4 chain: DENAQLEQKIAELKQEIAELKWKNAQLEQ

4H1373-bA = molecular target: T5, 4H1373-bA; assay: two-hybrid library CCNG1
T5 chain: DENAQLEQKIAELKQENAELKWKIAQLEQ

4H1393-bA = molecular target: T6, 4H1393-bA; assay: two-hybrid library CCNG1
T6 chain: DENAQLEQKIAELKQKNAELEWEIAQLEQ

4H1449-bA = molecular target: T7, 4H1449-bA; assay: two-hybrid library CCNG1
T7 chain: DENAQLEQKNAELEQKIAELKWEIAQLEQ

4H1544-bA = molecular target: T8, 4H1544-bA; assay: two-hybrid library CCNG1
T8 chain: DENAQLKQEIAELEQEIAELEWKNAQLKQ

4H1629-bA = molecular target: T9, 4H1629-bA; assay: two-hybrid library CCNG1
T9 chain: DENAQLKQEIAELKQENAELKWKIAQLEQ

4H1710-bA = molecular target: T10, 4H1710-bA; assay: two-hybrid library CCNG1
T10 chain: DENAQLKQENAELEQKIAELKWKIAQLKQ

4H1804-bA = molecular target: T11, 4H1804-bA; assay: two-hybrid library CCNG1
T11 chain: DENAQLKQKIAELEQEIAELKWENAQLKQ

4H1899-bA = molecular target: T12, 4H1899-bA; assay: two-hybrid library CCNG1
T12 chain: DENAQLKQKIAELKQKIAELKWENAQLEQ

4H1985-bA = molecular target: T13, 4H1985-bA; assay: two-hybrid library CCNG1
T13 chain: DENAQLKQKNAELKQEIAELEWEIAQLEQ

4H3129-bA = molecular target: T14, 4H3129-bA; assay: two-hybrid library CCNG1
T14 chain: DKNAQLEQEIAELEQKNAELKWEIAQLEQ

4H3172-bA = molecular target: T15, 4H3172-bA; assay: two-hybrid library CCNG1
T15 chain: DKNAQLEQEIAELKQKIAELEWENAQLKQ

4H3414-bA = molecular target: T16, 4H3414-bA; assay: two-hybrid library CCNG1
T16 chain: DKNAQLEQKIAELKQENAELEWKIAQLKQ

4H3613-bA = molecular target: T17, 4H3613-bA; assay: two-hybrid library CCNG1
T17 chain: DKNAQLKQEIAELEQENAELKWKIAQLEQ

4H3628-bA = molecular target: T18, 4H3628-bA; assay: two-hybrid library CCNG1
T18 chain: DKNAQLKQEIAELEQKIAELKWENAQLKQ

4H3631-bA = molecular target: T19, 4H3631-bA; assay: two-hybrid library CCNG1
T19 chain: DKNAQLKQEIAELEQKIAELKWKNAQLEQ

4H3638-bA = molecular target: T20, 4H3638-bA; assay: two-hybrid library CCNG1
T20 chain: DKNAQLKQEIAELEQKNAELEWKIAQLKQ

4H3817-bA = molecular target: T21, 4H3817-bA; assay: two-hybrid library CCNG1
T21 chain: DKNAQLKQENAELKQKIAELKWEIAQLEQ

4H3858-bA = molecular target: T22, 4H3858-bA; assay: two-hybrid library CCNG1
T22 chain: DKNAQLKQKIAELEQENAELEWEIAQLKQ

4H3974-bA = molecular target: T23, 4H3974-bA; assay: two-hybrid library CCNG1
T23 chain: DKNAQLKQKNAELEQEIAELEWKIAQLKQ

4H570-bA = molecular target: T24, 4H570-bA; assay: two-hybrid library CCNG1
T24 chain: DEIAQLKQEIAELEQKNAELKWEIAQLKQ

4H584-bA = molecular target: T25, 4H584-bA; assay: two-hybrid library CCNG1
T25 chain: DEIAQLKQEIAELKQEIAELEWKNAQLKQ

4H619-bA = molecular target: T26, 4H619-bA; assay: two-hybrid library CCNG1
T26 chain: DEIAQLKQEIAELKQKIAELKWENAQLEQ

4H850-bA = molecular target: T27, 4H850-bA; assay: two-hybrid library CCNG1
T27 chain: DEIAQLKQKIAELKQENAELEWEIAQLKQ

4H906-bA = molecular target: T28, 4H906-bA; assay: two-hybrid library CCNG1
T28 chain: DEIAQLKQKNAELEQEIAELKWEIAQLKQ

Core_NNNN-es_KKKK = molecular target: T29, Core_NNNN-es_KKKK; assay: two-hybrid library CCmax; conditions: mean of both orientations
T29 chain: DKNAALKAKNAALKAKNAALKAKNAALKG

P5SH = molecular target: T30, P5SH; assay: two-hybrid library CCNG1
T30 chain: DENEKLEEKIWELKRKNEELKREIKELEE

P6SH [1] = molecular target: T31, P6SH; assay: two-hybrid library CCNG1
T31 chain: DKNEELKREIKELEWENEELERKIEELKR

P7SH = molecular target: T32, P7SH; assay: two-hybrid library CCNG1
T32 chain: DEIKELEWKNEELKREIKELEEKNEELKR

P8SH = molecular target: T33, P8SH; assay: two-hybrid library CCNG1
T33 chain: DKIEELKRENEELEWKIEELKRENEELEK

P6SH [2] = molecular target: T31, P6SH; assay: two-hybrid library CCmax; conditions: mean of both orientations
Core_NIII-es_KKEK = molecular target: T34, Core_NIII-es_KKEK; assay: two-hybrid library CCmax; conditions: mean of both orientations
T34 chain: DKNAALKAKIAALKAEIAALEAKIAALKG

B1: 4H1222-bA (peptide)
chain: DENAQLEQENAELKQEIAELEWKIAQLKQ
- interaction score (4H1222-bA): 0.532
- interaction score (4H1338-bA): 0.202
- interaction score (4H1348-bA): 0.605
- interaction score (4H1359-bA): -0.0139
- interaction score (4H1373-bA): -0.665
- interaction score (4H1393-bA): 0.0501
- interaction score (4H1449-bA): 0.729
- interaction score (4H1544-bA): 0.517
- interaction score (4H1629-bA): -0.826
- interaction score (4H1710-bA): 2.36
- interaction score (4H1804-bA): -0.0181
- interaction score (4H1899-bA): 1.1
- interaction score (4H1985-bA): 1.8
- interaction score (4H3129-bA): -1.85
- interaction score (4H3172-bA): 0.388
- interaction score (4H3414-bA): -0.0927
- interaction score (4H3613-bA): -0.452
- interaction score (4H3628-bA): -0.374
- interaction score (4H3631-bA): 0.222
- interaction score (4H3638-bA): -0.958
- interaction score (4H3817-bA): 1.18
- interaction score (4H3858-bA): -0.31
- interaction score (4H3974-bA): 0.693
- interaction score (4H570-bA): 0.341
- interaction score (4H584-bA): -1.36
- interaction score (4H619-bA): -1.01
- interaction score (4H850-bA): -0.2
- interaction score (4H906-bA): -0.403

B2: Core_NNNN-es_EEEE (peptide)
chain: DENAALEAENAALEAENAALEAENAALEG
- interaction score (Core_NNNN-es_KKKK): 1.53

B3: P5SH (peptide)
chain: DENEKLEEKIWELKRKNEELKREIKELEE
- interaction score (P5SH): -0.706
- interaction score (P6SH [1]): 1.84
- interaction score (P7SH): -0.619
- interaction score (P8SH): 0.809
- interaction score (P6SH [2]): 0.801

B4: Core_NIII-es_EEKE (peptide)
chain: DENAALEAEIAALEAKIAALKAEIAALEG
- interaction score (Core_NIII-es_KKEK): 2.17
